Data published in paper PMC2902579.

Key:
PKR dsRBD (p20) [1] = molecular target: T1, PKR dsRBD (p20) (UniProt P19525 1-184); assay: EMSA
PKR dsRBD (p20) [2] = molecular target: T1, PKR dsRBD (p20); assay: nuclease footprinting

T1 sequence (P19525 1-184): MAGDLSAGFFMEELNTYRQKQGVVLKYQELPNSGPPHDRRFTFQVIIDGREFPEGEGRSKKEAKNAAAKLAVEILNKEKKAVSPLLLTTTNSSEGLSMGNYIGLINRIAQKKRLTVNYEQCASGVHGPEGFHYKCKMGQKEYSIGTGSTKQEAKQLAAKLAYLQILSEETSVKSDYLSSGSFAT

B1: HCV IRES domains III-IV (131-388) (structured_RNA)
RNA: GGGAGAGCCAUAGUGGUCUGCGGAACCGGUGAGUACACCGGAAUUGCCAGGACGACCGGGUCCUUUCUUGGAUCAACCCGCUCAAUGCCUGGAGAUUUGGGCGUGCCCCCGCGAGACUGCUAGCCGAGUAGUGUUGGGUCGCGAAAGGCCUUGUGGUACUGCCUGAUAGGGUGCUUGCGAGUGCCCCGGGAGGUCUCGUAGACCGUGCACCAUGAGCACGAAUCCUAAACCUCAAAGAAAAACCAAAGGGCGCGCCGC
PKR dsRBD (p20) [1]
  binding result: binds

B2: HCV IRES domain II (39-119) (structured_RNA)
RNA: GGACUCCCCUGUGAGGAACUACUGUCUUCACGCAGAAAGCGUCUAGCCAUGGCGUUAGUAUGAGUGUCGUGCAGCCUCCAGGA
PKR dsRBD (p20) [2]
  binding result: binds
